Results: US20220002363A1, “COMPOSITIONS AND METHODS FOR TREATING PULMONARY DISEASE” (United States Government As Represented By The Department …, priority 2020, published 2022)
Substitutions are numbered along the chain they refer to.

Legend:
[1] = target: T1, WT-sFasL (Homo sapiens, UniProt P48023); assay: Attenuation of WT-sFasL-induced caspase 3/7 activity in Jurkat cells by molar mixtures of WT and mut-sFasL; assay type: cell-based; settings: serial dilutions of mut sFasL
T1 construct: made in house
T1 sequence (P48023 103-281): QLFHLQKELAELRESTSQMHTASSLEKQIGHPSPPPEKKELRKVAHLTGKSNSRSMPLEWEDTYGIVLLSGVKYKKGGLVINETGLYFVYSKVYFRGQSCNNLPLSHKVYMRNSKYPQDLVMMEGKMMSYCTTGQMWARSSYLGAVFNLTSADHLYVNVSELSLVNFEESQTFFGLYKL
Description: FIGS. 2A-D show the mut-sFasL has inhibitory properties. Highly Fas-sensitive Jurkat cells (FIG. 2A), primary human lung small airway epithelial cells (SAEC, FIG. 2B) or murine lung epithelial cells (LA4, FIG. 2D) were incubated with serial dilutions of mutated FasL, (mut sFasL). […] As a confirmatory test, the experiment was repeated using SAEC and an annexin-V translocation assay (FIG. 2C). WT=wild type (no mutant). […] Each dot represents individual data; lines represent means±SD. *=P<0.05; **=P<0.01, ***P<0.001 when compared to WT. One way ANOVA with SIdak's post hoc analysis.
Methods. Cells and cell culture. To test Fas responses in vitro, the highly-Fas sensitive cell line, Jurak, was used. […]
Measurements of apoptotic cascade activation. Apoptotic cascade activation was assessed by determining caspase 3/7 activity and Annexin V externalization. Caspase-3/7 activity was measured using a commercial substrate (Caspase-Glo 3/7 Assay, Promega, Madison, Wis., Cat #G8090) following manufacturer's instructions. Annexin V was measured with a luminescent commercial assay that allows for measurement of annexin V externalization in adherent cells (RealTime-Glo Annexin V assay, Promega, Madison, Wis., Cat #JA1011). Luminescence was measured with a Synergy H4 Microplate Reader (BioTek, Winooski, Vt.). […]

[2] = target: T2, recombinant human soluble Fas (Homo sapiens, UniProt P25445); assay: Fas-FasL binding assay on wells coated with recombinant human soluble Fas; settings: recombinant human Fas 5 μg/mL, detection with polyclonal anti-FasL antibodies
T2 construct: recombinant human soluble Fas receptors (PeproTech, Rocky Hill, N.J.); purchased PeproTech
T2 sequence (P25445 26-173 limits assumed): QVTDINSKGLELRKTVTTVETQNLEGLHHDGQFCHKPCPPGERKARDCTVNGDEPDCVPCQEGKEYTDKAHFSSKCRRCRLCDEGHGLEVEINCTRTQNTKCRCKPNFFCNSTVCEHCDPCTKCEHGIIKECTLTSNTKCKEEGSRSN
Description: The mixtures were incubated for 2 hours in 96-well plates pre-coated with recombinant hsFas (250 ng/ml). After washing unbound material, biotin was detected using HRP conjugated Streptavidin. […] The sFasL bound to Fas was detected using polyclonal anti-human FasL antibodies. […] Different molar ratios of the Fas-activating antibody CH-11 and mut-sFasL were added, and caspase 3/7 activity measured after 5 hours. […] Data represent the results from three separate experiments, each done in duplicate, and were analyzed by 2-way ANOVA with Sidak's post hoc analysis. […] Each dot represents individual data; lines represent means±SD. *=P<0.05; **=P<0.01, ***P<0.001.
Antibodies and Reagents. […] FLAG tagged mut-sFasL was detected using HRP anti-FLAG monoclonal antibody (Sigma-Aldrich, Cat #A85920). […]
WT-sFasL inhibition occurs prior to receptor binding. […] Recombinant human Fas at 250 ng/mL were coated and the binding of a fixed concentration of biotinylated WT-sFasL (70 ng/mL) were measured in the presence of serial 3-fold dilutions of either WT-sFasL or mut-sFasL. […] Serial dilutions of either WT-sFasL or mut-sFasL were incubated in wells coated with recombinant human Fas, 5 μg/mL, and after washing, detected sFasL bound to Fas using polyclonal anti-FasL antibodies. […]

- binding curve to immobilized Fas relative to WT-sFasL ([2]; listed as mut sFasL): shifted to the left
B1: mut-sFasL: mutant sFasL molecule in which 8 charged amino acids in the 26 amino acid stalk region were changed to alanine (protein)
chain: T1 sequence (P48023 103-281) with H4A, K7A, E8A, E11A, R13A, E14A, H20A, E26A
- inhibition of wild type sFasL activity (caspase 3/7) [1]: dose-dependent inhibition of wild type sFasL activity
- binding curve to immobilized Fas relative to WT-sFasL [2]: shifted to the right, indicating decreased binding ability for Fas
